Measured values from patent US20150086555A1 (THERACLONE SCIENCES, published 2015).

B1: TCN-535 (5246_P19) (antibody, V domains shown)
VH: QVQLVQSGSEVKKPGTSVKVSCTASGSVFTNYGISWVRQAPGQGLEWMGGIIPLFGAAKYAQKFQGRVTITADESTKTVYMELSRLTSKDTAIYFCAKAPRVYEYYFDQWGQGTPVTVSS
VL: EIVLTQSPGTLSLSPGERATLSCRASQSVSSSQLAWYQQKPGQAPRLIIYGASTRATGIPDRFSGSGSGTDFTLTIGRLEPEDFAVFFCQQYSTSPPTFGQGTKVDFK
B2: TCN-542 (5079_A16) (antibody, V domains shown)
VH: QVQLQESGPGLVKPSQTLSLTCTVSGGSISSGNYYWNWVRQHPGKGLEWIGYIYYRGSTFYNPSLKSRVTISIDTSKNQFSLRLSSVTAADTAVYYCAKDTRSSLDNYQYGMDVWGQGTTVTVSS
VL: QTVVTQEPSLTVSPGGTVTLTCASSTGAVTSSYFPNWFQQKPGQAPRPLIYSTTIRHSWTPARFSGSLLGGKAALTLSGVQPEDEADYYCLLYSGGDPVAFGGGTKLTVL
B3: TCN-546 (5089_L08) (antibody, V domains shown)
VH: QVQLQQWGAGLLKPSETLSLTCGVYGGSLSDYYWSWIRQPPGKGLEWIGEINHSGGTNYNPSLKRRVTISVDTSKKQFSLKMNSVTAADTAVYYCARGTDPDTEVYCRAGNCAAFDFWGQGTLVTVSS
VL: EIVLTQSPGTLSLSPGERATLSCRASHFVIGRAVAWYQQKPGQAPRLLIYGASSRATGIPDRFSGSGSGTDFTLTISRLETEDFAVFYCQHYGSSPRYAFGQGTKLEIK
B4: TCN-531 (5091_H13) (antibody, V domains shown)
VH: EVQLVESGGDLVQPGRSLKLSCTGSGFTFGDYGVTWVRQAPGKGLEWVGFIRTRPWGGTADTAASVKGRFTISRDDSKSLAYLQMNSLKTEDTAVYYCCRDAPPNVEVASMTNWYFDLWGRGTLVTVSS
VL: DIQLTQSPSSLSASVGDRVTITCRASQGILNCLAWYQQKPGKVPNLLMYAASTLQSGVPSRFSGSGFGTDFTLTISSLQPEDVATYYCQTYGGVSTFGGGTKVEIR
B5: TCN-530 (5248_H10a) (antibody, V domains shown)
VH: QVQLVQSGAEVRKPGSSVKVSCKASGGPFMSYAIGWVRQAPGQGLEWMGGINPVFGRPHYAQKFQGRVTIATDDSTKTSYMELSSLTSEDTGMYYCASRYSRSSPGTFESWGQGTLVTVSS
VL: EIVMTQFPATLSVSPGERVTLSCRASQSVSNNLAWYQQKPGQPPRLLIYDASTRATGVPAKFSGTGSGTEFTLSISSLQSEDFAVYYCQQYHNWPPSYSFGLGTKLEIK
B6: TCN-528 (5087_P17) (antibody, V domains shown)
VH: QVQLVQSGSEVKKPGASVKVSCKASGYTFTNYDINWIRQAPGQGLEWMGWINPNSGTTGSAQRFQGRVTITVDTSITTVYMELSSLRSDDTAIYYCARGRELLRLQHFLTDSQSERRDCFDPWGQGTLVTVSS
VL: DIQMTQSPSSLSASVGDRVTITCRANQDIGIYLNWYQQNPGKVPKLLLHGASSLQGGVPSRFSASGSGTDFTLTIHSLQPEDLATYYCQQSRRLPYTFGQGTRVELK
B7: TCN-539 (5056_A08) (antibody, V domains shown)
VH: QVQLVESGGGVVQPGRSLRLSCAASEITFITYAMHWVRQAPGKGLEWVALISDDGSNKFYADSVKGRFTISRDNSKNTLYLQMNSLRAEDTAAYYCAREGVYFDSGTYRGYFDYWGQETLVTVSS
VL: EIVLTQSPATLSLSPGERATLSCRASQSVSSYLAWYQQKPGQAPRLLIYDASNRATGIPARFSGSGSGTDFTLTISSLEPEDFAVYYCQQRSHWPPITFGQGTRLEIK
B8: TCN-540 (5060_F05) (antibody, V domains shown)
VH: QVQLVQSGGGVVQPGRSLRLSCAASGFTFSSYAMHWVRQAPGKGLEWVAIISYDGNDQYYTDSVKGRFTISRDSSKVYLQMHRLRPEDTAVYYCAKEFETSGYFHGSFDYWGQGILVTVSS
VL: QSALTQPASVSGSPGQSITISCTGTSSDVGGYNYVSWYQQHPGKAPKLLIYEVTNWPSGVSNRFSGSKSGNTASLTISGLQAEDEADYYCSSYAGSSTWVFGGGTRVTVL
B9: TCN-536 (5095_N01) (antibody, V domains shown)
VH: QVQLQQWGAGLLKPSETLSLTCAVYGGSFSVSGYYWSWIRQPPGRGLEWIGEISHGGSTNYNPSLKSRVTISVDTTKNQFSLRLSSVTAADTAVYYCARGTDPDTEVYCRVGNCAAFDYWGQGSLVTVSS
VL: EIILAQSPGTLSLSPGERATLSCRASQFVSTRSLAWYQQRPGQAPRLLIYGASSRATGIPDRFSGSGSGTDFTLTISRLEPEDFAVYYCQHYGYSPRYAFGQGSKVEIK
B10: TCN-543 (5081_G23) (antibody, V domains shown)
VH: QVHLVQSGAEVRKPGDSVKVSCKTSGYTFSTYPVAWVRQVPGQGLEWMGWISTYNGNTNFAQNFQGRVTLTTDTTTNTAYMEVRSLKFDDTAVYYCARVEGSYRDFWNNQNRFDPWGQGTLVTVSS
VL: SYVLTQPPSVSVAPGQTARISCGGSNIGGKSVHWYQQKPGQAPVLVVYDDSGRPSGIPERFSGSNSGDTATLTISRVEAGDEADYFCQVWDNFGGVFGTGTKVTVL
B11: TCN-560 (5084_P10) (antibody, V domains shown)
VH: EVQLVESGGGLVQPGGSLRLSCAASGFIFRNYWMSWVRQAPGKGLEWVANIKQDGREKYYVDSLRGRVNISRDNAENSLYLHMNSLRVEDTAVYFCARARMVVVTGDGFDVWGHGTMVTVSS
VL: DIQMTQSPSSLSASVGDRVTITCRASQNIKRYFNWYQQKPGKAPKLLIYAASNLENGVPSRFSGSGSGTDFTLTISSLQPEDFATYYCQQSFSKSWTFGQGTNVDIK
B12: TCN-545 (5082_I15) (antibody, V domains shown)
VH: QVQLQQWGAGLLKPSETLSLSCAVFGGSFSDYYWTWIRQPPGKGLEWIGEIKHSGRTNYNPSLESRVTISVDTSKNQFSLKLSSVTAADTAIYYCARGTDPDTEGYCRSGSCSAFDFWGQGTLVTVSS
VL: EIVLTQSPGTLSLSPGERATLSCRASHFVNYRSLAWYQQTPGQVPRLLIYGASTRATGIPDRFSGSGSGTDFTLTISRLEPEDFAVYFCQQYGGSPRYTFGQGTRLEIK
B13: TCN-544 (5082_A19) (antibody, V domains shown)
VH: QVQLQESGPGLVKPSETLSLTCTVSRGSIGHYFWSWIRQPPGKGLEWIGYISYSGSTKYNPSLRSRVTISVDTSKNQFSLNLNSVTATDTALYYCAREDYDILTGAGPGMEVWGQGTTVTVSS
VL: QSMLTQPPSASGTPGQRVTISCSGSSSNIGSNTVNWFKHLPGTAPKLLIYRNDLRPSGVPDRFSGSKSGTSASLAISGLQSEDEADYYCATWDDSLNGFYVFGTGTKVTVL
B14: TCN-521 (3280_D18) (antibody, V domains shown)
VH: EVQLVQSGGGLVQPGGSLRLACVVSGFTVTSNYITWVRQAPGKGLEWVSVIYSHGRAYYSASVNGRFTISRHTSKNTVYLEMNSLRPEDTAVYYCAGGGLVGGYDEYFFDYWGQGTLATVSS
VL: ETVLTQSPGTLSLTPGERATLSCRVGQSVSGSHLAWYQQKPGQAPRLLIYGASSRATGIPDRFGGSVSGTDFTLTISRLEPEDSAVYYCQQYGDSRYTFGQGTKLEIK
B15: TCN-527 (5086_C06) (antibody, V domains shown)
VH: QVQLQESGPGLVKPSETLSLNCAVSGGSISNYYWSWIRQPPGKGLEWIGYISYNGRPKYNPSLTSRVTISVDTSKDQFSLELRSVTAADTALYYCARETRFGELLSPYDAFEIWGQGTMVTVSS
VL: DIQMTQSPSSLSASVGDRVTMTCRASQNIRSYLNWYQQRPGTAPKLLIYAASTLHSGVPSRFSGGGSGTDFTLTINNLQPEDFASYYCQQSYDNPQTFGQGTKVEIK
B16: TCN-526 (5084_C17) (antibody, V domains shown)
VH: EVLMVESGGGLVQPGGSVRLSCVASGFSFSSHWMTWVRQAPGKGLEWVANIEDDGGDKYYVDSVKGRFIISRDNAKNSVYLQMNSLRAEDTAVYFCARGSGSSDRSDYDPHYYYYLDVWGKGATVTVSS
VL: DIQLTQSPSSLSASVGDRVTITCRASQSISRYLNWYQQKPGKAPKLLLFAASTLLDGVPSRFSGSGSGTDFTLTISSLQPEDFATYYCQRNHSPSWTFGQGTRVEIK
B17: TCN-555 (5246_L16) (antibody, V domains shown)
VH: QVQLVQSGAEVKRPGSSVKVSCTASGGIFRKNAISWVRQAPGQGLEWMGGIIAVFNTANYAQKFQNRVKITADESGNTAYMELSSLTSDDTAVYYCASHPKYFYGSGSYPDFWGQGTLVTVSS
VL: QSALTQPRSVSGSPGQSITISCTGGSSDIGASNSVSWYQQHPGKAPKLVIFDVTERPSGVPHRFSGSKSGNTASLTVSGLQPDDEADYFCCAYGGKYLVVFGGGTKVTVL
B18: TCN-563 (5237_B21) (antibody, V domains shown)
VH: QVQLAQSGAEVKRPGSSVKVSCTASGGIFRKNAISWVRQAPGQGLEWMGGIIAVFNTANYAQKFQGRVKITADESGNTAYMELSSLRSDDTAVYYCASHPKYFYGSGSYPDFWGQGTLVTVSS
VL: QSALTQPRSVSGSPGQSVTISCTGSSSDVGASNSVSWYQQHPGKAPKLVIYDVTERPSGVPHRFSGSKSGNTASLTVSGLQPEDEADYFCCAYGGKYLVVFGGGTKVTVL
B19: TCN-534 (5249_B02) (antibody, V domains shown)
VH: QVQLVQSGAEVKKPGSSVKVSCRESGGTFNGYTITWVRQAPGQGLEWMGGIIPMMGTVNYAQKLQGRVTITTDYFTKTAYMDLNNLRSEDTAMYYCVKIRYTGQQLLWGQGTLVTVSS
VL: DIQMTQSPSTLSASIGDRVTITCRASQSIASWLAWYQQKPGKAPKLLIYEAVNLESGVPSRFSGSGSGTDFTLTISSLQPDDFATYFCQHYGTISQTFGGGTKVEIK
B20: TCN-564 (5256_A17b) (antibody, V domains shown)
VH: QVQLVQSGADVKKPGSSVTVSCKASGGSFSNYGINWVRQAPGQGLEWMGGIIPLINAPNYAPKFQGRVTITADMFSNIVSLQLTSLRTDDTAVYYCARRKMTTAIDYWGQGTLVTVSS
VL: QPVLSQPPSASASLGASVTLTCTLSSGFDNYQVAWYQQRPGKGPRFVMRVGNGGNVASKGDGIPDRFSVSGSGLNRYLTIKNIQEDDESDYYCGADHGSGNNFVSPYVFGGGTKLTVL
B21: TCN-533 (5256_A17a) (antibody, V domains shown)
VH: QVQLVQSGADVKKPGSSVTVSCKASGGSFSNYGINWVRQAPGQGLEWMGGIIPLINAPNYAPKFQGRVTITADMFSNIVSLQLTSLRTDDTAVYYCARRKMTTAIDYWGQGTLVTVSS
VL: QPVLTQPPSASASLGASVTLTCTLSSAYSNYKVDWYQQRPGKGPRFVMRVGTGGIVGSKGDGIPDRFSVLGSGLNRYLTIKNIQEEDESDYHCGADHGSGSNFVSPYVFGGGTKLTVL

Target: hemagglutinin (HA) of influenza A/Japan/305/57 (H2N2) on whole virions (Influenza A virus A/Japan/305/1957(H2N2), UniProt P03451 16-562)
Assay: ELISA; BCC supernatant on coated inactivated whole virions

Going from B1 to B2, the “ELISA virus binding (OD450)” value falls from 1.46 OD450 to 0.08 OD450.

Going from B3 to B4, the “ELISA virus binding (OD450)” value rises from 0.06 OD450 to 0.67 OD450.

First: B5
Second: B6
The “ELISA virus binding (OD450)” value of the first is lower: 1.73 OD450 for the first, 2.82 OD450 for the second.

Compared with B7, B8 is higher in “ELISA virus binding (OD450)” value: 0.06 OD450 for the first, 3.62 OD450 for the second.

First: B9
Second: B10
The “ELISA virus binding (OD450)” value of the first is lower: 0.08 OD450 for the first, 3.62 OD450 for the second.

First: B11
Second: B12
The “ELISA virus binding (OD450)” value of the first is higher: 2.07 OD450 for the first, 0.06 OD450 for the second.

Going from B13 to B14, the “ELISA virus binding (OD450)” value rises from 0.07 OD450 to 3.1 OD450.

First: B15
Second: B16
The “ELISA virus binding (OD450)” value of the first is higher: 1.48 OD450 for the first, 0.07 OD450 for the second.

First: B17
Second: B18
The “ELISA virus binding (OD450)” value of the first is lower: 0.6 OD450 for the first, 1.23 OD450 for the second.

Compared with B19, B20 is lower in “ELISA virus binding (OD450)” value: 2.56 OD450 for the first, 1.1 OD450 for the second.

B21 was tested, and the “ELISA virus binding (OD450)” value was 1.1 OD450.
